Patent publication US20170190775A1 (published 2017)

Tests used:
[1] = molecular target: T1, full length cynomolgus monkey (c)TREM-1 on cells (cynomolgus monkey); test: binding to cynomolgus monkey PBMCs, FIG. 6A
T1 construct: also called cynoTREM-1; cTREM-1 reporter cell
T1 chain: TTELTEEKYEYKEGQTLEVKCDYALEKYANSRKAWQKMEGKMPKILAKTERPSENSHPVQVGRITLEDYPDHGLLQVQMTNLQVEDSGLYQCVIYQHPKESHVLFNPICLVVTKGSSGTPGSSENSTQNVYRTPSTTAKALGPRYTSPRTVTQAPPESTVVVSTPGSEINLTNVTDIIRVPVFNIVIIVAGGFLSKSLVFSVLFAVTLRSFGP

[2] = molecular target: T2, cynomolgus TREM-1 (cTREM-1) protein (cynomolgus monkey); test: SPR, mAb captured by anti-Fc, cTREM-1 as analyte
T2 construct: also called cyno TREM-1
T2 chain: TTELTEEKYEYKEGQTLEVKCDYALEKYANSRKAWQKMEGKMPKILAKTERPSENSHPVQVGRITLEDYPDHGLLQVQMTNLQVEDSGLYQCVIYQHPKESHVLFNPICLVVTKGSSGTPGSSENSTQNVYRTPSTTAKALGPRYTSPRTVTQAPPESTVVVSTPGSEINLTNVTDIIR
Procedure: Binding studies were performed on a ProteOn Analyzer (BioRad) that measures molecular interactions in real time through surface plasmon resonance. Experiments were run at 25° C. and the samples were stored at 15° C. in the sample compartment. The signal (RU, response units) reported by the ProteOn is directly correlated to the mass on the individual sensor chip surfaces in six parallel flow cells. Anti-human Fc monoclonal or anti-murine Fc polyclonal antibody from Biacore human or mouse Fc capture kits were immobilized in horizontal direction onto flow cells of a GLM sensor chip according to the manufacturer's instructions. The final immobilization level of capture antibody was approximately 2600-6000 RU in different experiments. […] Binding of hTREM-1 or cTREM-1 proteins was conducted by injecting analyte (antigen) over all flow cells in horizontal direction to allow for comparative analyses of binding to different captured anti-TREM-1 antibodies relative to binding to the reference interspot. hTREM-1 or cTREM-1 proteins was diluted serially 1:3 to 1.2-100 nM or into running buffer, injected at 100 μl/min for 250 s and allowed to dissociate for 600s. The GLM surface was regenerated after each injection cycle of analyte via two 18 s injections of 10 mM Glycine, pH 1.7 and 50 mM NaOH at 100 μl/min. This regeneration step removed the anti-TREM-1 antibody and any bound TREM-1 protein from the immobilized capture antibody surface, and allowed for the subsequent binding of the next interaction sample pair.

[3] = molecular target: T1, full length cynomolgus monkey (c)TREM-1 …; test: binding to cynomolgus monkey PBMCs, FIG. 6B
[4] = molecular target: T3, cTREM-1 construct, residues M1-R180 of SEQ ID NO: 12 with six histidine residues at the C-terminus (cynomolgus monkey); test: HX-MS
T3 chain: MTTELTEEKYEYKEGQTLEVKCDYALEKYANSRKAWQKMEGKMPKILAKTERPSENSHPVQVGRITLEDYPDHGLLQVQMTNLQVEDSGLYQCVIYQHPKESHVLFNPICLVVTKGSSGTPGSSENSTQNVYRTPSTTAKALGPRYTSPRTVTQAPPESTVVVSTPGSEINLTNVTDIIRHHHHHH
Procedure: Non-deuterated controls were prepared by diluting into protiated hepes buffer. The hydrogen exchange experiments were performed on a waters HDX nanoAcquity ultra-high performance liquid chromatography (UPLC) system (Waters Corporation, Milford, Mass., USA) which included the HD-x PAL auto sampler (LEAP Technologies Inc., Carrboro, N.C., USA) for automated sample preparation. The LC tubing, pre- and analytical columns and switching valves were located in a chamber cooled to 0.3° C. The trypsin digestion column was stored at 15° C. Hydrogen exchange reactions were performed at 20° C. Mass analysis was performed online using a Waters SYNAPT G2 HDMS mass spectrometer.
The mass spectrometer was operated in positive ion mode with ion mobility separation enabled. […] Deuterated samples were analysed using the 6 V low energy trap collision offset only.
The MS^E-data was analysed using Waters ProteinLynx Global Server 2.5 and peptides of hTREM-1 were identified that covered 80% of the protein sequence (Table 3) and peptides of cTREM-1 were identified that covered 100% of the protein sequence (Table 4). The HX-MS data files were analysed using Waters DynamX 1.0 that automatically applies lock-mass correction and determines the degree of deuterium incorporation in each peptide. […]

[5] = molecular target: T2, cynomolgus TREM-1 (cTREM-1) protein; test: SPR, mAb captured by anti-Fc, cTREM-1 as analyte (Example 11)
Procedure: Binding studies were performed on a ProteOn Analyzer (BioRad) that measures molecular interactions in real time through surface plasmon resonance. Experiments were run at 25° C. and the samples were stored at 15° C. in the sample compartment. The signal (RU, response units) reported by the ProteOn is directly correlated to the mass on the individual sensor chip surfaces in six parallel flow cells.
Anti-human Fc monoclonal or anti-murine Fc polyclonal antibody from Biacore human or mouse Fc capture kits were immobilized in horizontal direction onto flow cells of a GLM sensor chip according to the manufacturer's instructions. The final immobilization level of capture antibody was approximately 2600-6000 RU in different experiments. […] This regeneration step removed the anti-TREM-1 antibody and any bound TREM-1 protein from the immobilized capture antibody surface, and allowed for the subsequent binding of the next interaction sample pair.

| Binder | Kd [2] [nM] | other results |
| --- | --- | --- |
| mAb 0048 (antibody, V domains shown, also called 14F11A1B1; 14F11) VH: EVQLVESGGGLVQPKGSLKLSCAASGFTFNTYAMHWVRQAPGKGLEWVARIRTKSNNYATYYVDSVKDRITISRDDSQSMLYLQMNNLKTEDTAMYYCVRDMGIRRQFAYWGQGTLVTVSA VL: DIVLTQSPASLAVSLGQRATISCRASESVDSFGISFMHWYQQSPGQPPKLLIYRASNLESGIPARFSGSGSRTDFTLTINPVEADDVATYYCQQSNEDPYTFGGGTKLEIKR | 1.2 | binding result [1]: binds |
| mAb 0059 (antibody, IgG1, V domains shown, Recombinant; also called 14F113/14F69; 14F113A1B1C1 (recombinant)) VH: EVQLVESGGGLVQPKGSLKLSCGASDFTFNTYAMHWVRQAPGMALEWVARIRTKSSNYATYYADSVKDRFTISRDDSQNMLYLQMNNLKTEDTAMYYCVRDMGQRRQFAYWGQGTLVTVSA VL: DIVLTQSPASLAVSLGQRATISCRASESVDTFDYSFLHWYQQKPGQPPKLLIYRASNLESGIPARFSGSGSRTDFTLTINPVEADDVATYYCQQSNEDPYTFGGGTKLEIER | 0.67 | – |
| mAb 0054 (antibody, V domains shown, Hybridoma antibody 14F128A1; also called 14F128A1; 14F128) VH: EVQLVESGGGLVQPKGSLKLSCAASGFTFNTYAMHWVRQAPGKGLEWVARIRTKSNNYATYYVDSVKDRITISRDDSQSMLYLQMNNLKTEDTAMYYCVRDMGIRRQFAYWGQGTLVTVSA VL: DIVLTQSPASLAVSLGQRATISCRASESVDSFGISFMHWYQQSPGQPPKLLIYRASNLESGIPARFSGSGSRTDFTLTINPVEADDVATYYCQQSNEDPYTFGGGTKLEIKR | – | binding result [1]: binds |
| mAb 0068 (antibody, V domains shown, Recombinant; also called 14F128/14F11 (recombinant)) VH: EVQLVESGGGLVQPKGSLKLSCAASGFTFNTYAMHWVRQAPGKGLEWVARIRTKSNNYATYYVDSVKDRITISRDDSQSMLYLQMNNLKTEDTAMYYCVRDMGIRRQFAYWGQGTLVTVSA VL: DIVLTQSPASLAVSLGQRATISCRASESVDSFGISFMHWYQQSPGQPPKLLIYRASNLESGIPARFSGSGSRTDFTLTINPVEADDVATYYCQQSNEDPYTFGGGTKLEIKR | 12 | – |
| mAb 0067 (antibody, V domains shown, also called 14F11A1B1 (recombinant)) VH: EVQLVESGGGLVQPKGSLKLSCAASGFTFNTYAMHWVRQAPGKGLEWVARIRTKSNNYATYYVDSVKDRITISRDDSQSMLYLQMNNLKTEDTAMYYCVRDMGIRRQFAYWGQGTLVTVSA VL: DIVLTQSPASLAVSLGQRATISCRASESVDSFGISFMHWYQQSPGQPPKLLIYRASNLESGIPARFSGSGSRTDFTLTINPVEADDVATYYCQQSNEDPYTFGGGTKLEIKR | 4.7 | – |
| mAb 0044 (antibody, IgG2a, V domains shown, Hybridoma antibody; also called 14F69A1; 14F69) VH: EVQLEESGGGLVQPKGSLKLSCGASDFTFNTYAMHWVRQAPGMALEWVARIRTKSSNYATYYADSVKDRFTISRDDSQNMLYLQMNNLKTEDTAMYYCVRDMGQRRQFAYWGQGTLVTVSA VL: DIVLTQSPASLAVSLGQRATISCRASESVDTFDYSFLHWYQQKPGQPPKLLIYRASNLESGIPARFSGSGSRTDFTLTINPVEADDVATYYCQQSNEDPYTFGGGTKLEIER | – | binding result [3]: binds |
| mAb 0122 (antibody, human IgG4 S228P, kappa, V domains shown, Second humanised TREM-1 antibody; also called 14F113/14F69 hz variant LC M4L) VH: EVQLVESGGGLVQPGGSLKLSCAASGFTFSTYAMHWVRQASGKGLEWVGRIRTKSSNYATYYAASVKGRFTISRDDSKNTAYLQMNSLKTEDTAVYYCTRDMGQRRQFAYWGQGTLVTVSS VL: DIVLTQSPDSLAVSLGERATINCRASESVDTFDYSFLHWYQQKPGQPPKLLIYRASNLESGVPDRFSGSGSGTDFTLTISSLQAEDVAVYYCQQSNEDPYTFGQGTKLEIKR | 0.97 | – |
| mAb 0124 (antibody, V domains shown, Recombinant; LC G68R (Kabat) in CDR grafted 14F113; also called 14F113/14F69 hz variant LC G68R; 14F113 hz variant LC G68R) VH: EVQLVESGGGLVQPGGSLKLSCAASGFTFSTYAMHWVRQASGKGLEWVGRIRTKSSNYATYYAASVKGRFTISRDDSKNTAYLQMNSLKTEDTAVYYCTRDMGQRRQFAYWGQGTLVTVSS VL: DIVMTQSPDSLAVSLGERATINCRASESVDTFDYSFLHWYQQKPGQPPKLLIYRASNLESGVPDRFSGSGSRTDFTLTISSLQAEDVAVYYCQQSNEDPYTFGQGTKLEIK | 1.1 | – |
| mAb 0170 (antibody, human IgG4 S228P, kappa, V domains shown, Final humanised antibody from hybridoma 14F113 with LC M4L back-mutation and HC CDR3 Q98I (Kabat); also called 14F113/14F69 hz variant LC Q98I) VH: EVQLVESGGGLVQPGGSLKLSCAASGFTFSTYAMHWVRQASGKGLEWVGRIRTKSSNYATYYAASVKGRFTISRDDSKNTAYLQMNSLKTEDTAVYYCTRDMGIRRQFAYWGQGTLVTVSS VL: DIVLTQSPDSLAVSLGERATINCRASESVDTFDYSFLHWYQQKPGQPPKLLIYRASNLESGVPDRFSGSGSGTDFTLTISSLQAEDVAVYYCQQSNEDPYTFGQGTKLEIKR | 3.6 | binding result [4]: binds; Kd [5]: 3 nM |
